The text below walks through data of US20250255972A1, “METHOD OF TREATING UVEITIS WITH MULTIVALENT PROTEIN-HYALURONIC ACID POLYMER CONJUGATE” (Valitor, Inc., priority 2022, published 2025).

For this assay, the target named is T1, Human IL-1β, Fc tagged (Acro Biosystems ILA-H525c) (human, UniProt P01584 117-269).
T1 construct: Bought BLI ligand, loaded on anti-human Fc probes; also called BLI ligand; not shown: Fc tag
Kind of assay: BLI (Gator), Fc-tagged IL-1β on anti-human Fc probes, conjugate as analyte, 1:1 global fit.

B1: (SEQ ID NO:106)+HyA (850 kDa) conjugate #9, valency 15 (other)
scFv: EIVMTQSPSTLSASVGDRVIITCQASQSIDNWLSWYQQKPGKAPKLLIYRASTLASGVPSRFSGSGSGAEFTLTISSLQPDDFATYYCQNTGGGVSIAFGQGTKLTVLGGGGGSGGGGSGGGGSGGGGSEVQLVESGGGLVQPGGSLRLSCTASGFSLSSAAMAWVRQAPGKGLEWVGIIYDSASTYYASWAKGRFTISRDTSKNTVYLQMNSLRAEDTAVYYCARERAIFSGDFVLWGQGTLVTVSSSPSTPPTPSPSTPPGGC
modifications: C-terminal cysteine thiol of the rigid peptide linker joined through the EMCH organic linker to hyaluronic acid
In general, Kd refers to the constant that tells how readily two partners part at equilibrium. Consider B1, for which binding was put at a Kd of 0.353 nM.
